In patent US20110177071A1 (PERSEID THERAPEUTICS, published 2011):
Numbering of substitutions follows the chain as printed.

T1: full-length human CD86 on HEK293 cells (human, UniProt P42081 24-329)
T1 sequence: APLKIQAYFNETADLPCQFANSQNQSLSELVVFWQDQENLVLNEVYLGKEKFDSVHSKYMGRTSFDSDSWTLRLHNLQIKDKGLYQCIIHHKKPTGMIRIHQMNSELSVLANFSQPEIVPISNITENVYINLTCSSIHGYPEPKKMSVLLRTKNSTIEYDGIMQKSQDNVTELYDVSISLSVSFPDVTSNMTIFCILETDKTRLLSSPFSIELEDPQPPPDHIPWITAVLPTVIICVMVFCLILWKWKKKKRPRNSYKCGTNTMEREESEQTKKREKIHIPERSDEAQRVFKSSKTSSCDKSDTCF

T2: human CD86-murine Ig fusion protein (human)
T2 construct: Bought (Ancell #509-820); also called hCD86-mIg
T2 chain: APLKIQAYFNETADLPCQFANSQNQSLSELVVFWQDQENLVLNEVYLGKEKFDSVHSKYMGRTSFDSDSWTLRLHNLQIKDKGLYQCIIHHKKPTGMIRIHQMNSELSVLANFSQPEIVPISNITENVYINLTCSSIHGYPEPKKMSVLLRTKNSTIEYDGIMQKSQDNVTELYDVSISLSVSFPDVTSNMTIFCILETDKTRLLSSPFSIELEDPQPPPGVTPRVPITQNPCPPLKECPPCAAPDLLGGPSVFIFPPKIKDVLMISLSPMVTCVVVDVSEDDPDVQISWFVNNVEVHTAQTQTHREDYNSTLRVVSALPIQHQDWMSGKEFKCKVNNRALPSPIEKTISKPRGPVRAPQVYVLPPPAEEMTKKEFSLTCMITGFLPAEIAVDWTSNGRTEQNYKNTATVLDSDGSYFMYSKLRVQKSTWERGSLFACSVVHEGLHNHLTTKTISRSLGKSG

T3: human CD80-murine Ig fusion protein (human)
T3 construct: Bought (Ancell #510-820); also called hCD80-mIg; human CD80-murine IgG
T3 chain: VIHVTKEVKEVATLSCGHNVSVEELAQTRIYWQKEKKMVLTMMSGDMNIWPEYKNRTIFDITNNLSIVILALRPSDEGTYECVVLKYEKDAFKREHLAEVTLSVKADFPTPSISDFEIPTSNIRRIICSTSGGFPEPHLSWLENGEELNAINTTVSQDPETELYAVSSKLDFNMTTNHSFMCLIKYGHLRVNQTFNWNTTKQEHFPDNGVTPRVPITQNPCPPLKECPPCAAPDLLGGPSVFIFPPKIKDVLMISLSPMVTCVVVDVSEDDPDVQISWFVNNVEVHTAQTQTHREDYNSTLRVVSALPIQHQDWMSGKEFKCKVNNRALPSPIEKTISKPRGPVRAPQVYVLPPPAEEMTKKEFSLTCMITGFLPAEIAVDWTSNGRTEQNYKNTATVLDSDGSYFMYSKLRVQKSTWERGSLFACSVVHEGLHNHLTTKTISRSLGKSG

T4: monomeric hCD86 ECD (papain-digested hCD86-mIg) (human, UniProt P42081 24-243)
T4 construct: also called monomeric hCD86-mIg ligand; monomeric CD86 ECD
T4 chain: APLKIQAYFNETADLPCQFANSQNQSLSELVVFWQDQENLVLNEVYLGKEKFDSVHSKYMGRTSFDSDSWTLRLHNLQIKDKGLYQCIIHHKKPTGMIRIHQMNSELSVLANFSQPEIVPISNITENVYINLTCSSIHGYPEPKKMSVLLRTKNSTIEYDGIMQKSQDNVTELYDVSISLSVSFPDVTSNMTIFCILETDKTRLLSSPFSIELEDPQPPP

B1: D3-14-IgG2 (Fc fusion)
chain: MHVAQPAVVLASSRGIASFVCEYESPGKANEIRVTVLRQADSQVTEVCAMTYMKGDELTFLDDPSCTGTFSGNQVNLTIQGLRAADTGLYICKVELMYPPPYYLGIGNGTQIYVIDPEPCPDSDERKCCVECPPCPAPPVAGPSVFLFPPKPKDTLMISRTPEVTCVVVDVSHEDPEVQFNWYVDGVEVHNAKTKPREEQFNSTFRVVSVLTVVHQDWLNGKEYKCKVSNKGLPAPIEKTISKTKGQPREPQVYTLPPSREEMTKNQVSLTCLVKGFYPSDIAVEWESNGQPENNYKTTPPMLDSDGSFFLYSKLTVDKSRWQQGNVFSCSVMHEALHNHYTQKSLSLSPG
B2: D3-17-IgG2 (Fc fusion)
chain: B1 chain with A85M
B3: D3-56-IgG2 (Fc fusion)
chain: B1 chain with E24A, I32V, G55E, D56N, A85M
B4: D3-29-IgG2 (Fc fusion)
chain: B1 chain with E24A, A85M
B5: D3-73-IgG2 (Fc fusion)
chain: B1 chain with I32V, D56N, S65I, A85M, L104E
B6: D3-12-IgG2 (Fc fusion)
chain: B1 chain with D41G
B7: D3-75-IgG2 (Fc fusion)
chain: B1 chain with I32V, G55E, D56N, A85M
B8: D3-69-IgG2 (Fc fusion)
chain: B1 chain with A85M, L104E
B9: D3-27-IgG2 (Fc fusion)
chain: B1 chain with I32V, D56N, A85M
B10: D3-62-IgG2 (Fc fusion)
chain: B1 chain with E24A, G55E, A85M
B11: D3-71-IgG2 (Fc fusion)
chain: B1 chain with E24A, A85M, L104E
B12: D3-20-IgG2 (Fc fusion)
chain: B1 chain with D56N, A85M
B13: D3-11-IgG2 (Fc fusion)
chain: B1 chain with D41G, A85M, I106F
B14: D3-72-IgG2 (Fc fusion)
chain: B1 chain with D56N, A85M, L104E
B15: D3-70-IgG2 (Fc fusion)
chain: B1 chain with I32V, D56N, A85M, L104E
B16: D3-65-IgG2 (Fc fusion)
chain: B1 chain with E24A, I32V, D56N, A85M, L104E
B17: D3-54-IgG2 (Fc fusion)
chain: B1 chain with E24A, I32V, G55E, D56N, S65I, A85M
B18: D3-4-IgG2 (Fc fusion)
chain: B1 chain with I106F
notes: also called D3-04-IgG2

Assays:
[1] = biological target: T1, full-length human CD86 on HEK293 cells; assay: cell-based or functional assay
[2] = biological target: T2, human CD86-murine Ig fusion protein; assay: SPR Biacore, hCD86-mIg captured
[3] = biological target: T3, human CD80-murine Ig fusion protein; assay: SPR Biacore, hCD80-mIg captured
[4] = biological target: T4, monomeric hCD86 ECD (papain-digested …); assay: SPR Biacore, fusion protein captured, monomeric hCD86 ECD in flow
Protocol: Regeneration between cycles was performed by 3 min incubation with 10 mM glycine buffer (pH 1.7) at 30 μl/min.
For kinetic analysis, data from monomeric binding assays were selected as described above except that association data selection began and ended 5 s from the injection start and stop times, and dissociation data selection started 5 s after the injection stop time, and typically included 1-60 s of the dissociation period. Such data were also analyzed for steady state equilibrium affinities using the BIAevaluation software. Steady state binding levels for each concentration (Responseeq (“Req”) values) were averaged over 5-20 s range near the end of the sample injection using the BIAevaluation “General fit: average” function.

Row | Binder | Mean IC50 (nM), CD4+ T cell proliferation [1] [nM] | Binding Avidity (Relative to Orencia) [2] [fold] | Kd [2] [nM] | Kd [3] [nM] | Binding Affinity (Relative to LEA29Y-Ig) [4] [fold] | Kd [4] [nM] | Binding Avidity (Relative to Orencia) [3] [fold]
1 | B1 | 0.04 | > 40 | < 0.131 | 0.439 to 1.75 | > 5 | < 336 | 
2 | B2 | 0.03 | > 40 | < 0.131 | 0.439 to 1.75 | > 5 | < 336 | 
3 | B3 | 0.04 | > 40 | < 0.131 | 0.439 to 1.75 |  |  | 
4 | B4 | 0.04 | > 40 | < 0.131 | 0.439 to 1.75 | > 5 | < 336 | 
5 | B5 | 0.06 | > 40 | < 0.131 | < 0.439 |  |  | > 2
6 | B6 | 0.04 | > 40 | < 0.131 | < 0.439 | > 5 | < 336 | > 2
7 | B7 | 0.03 | > 40 | < 0.131 | < 0.439 |  |  | > 2
8 | B8 | 0.03 | > 40 | < 0.131 | < 0.439 |  |  | > 2
9 | B9 | 0.04 |  | 0.131 to 0.262 | 0.439 to 1.75 |  | 336 to 840 | 
10 | B10 | 0.04 | > 40 | < 0.131 | < 0.439 |  |  | > 2
11 | B11 | 0.04 | > 40 | < 0.131 | < 0.439 |  |  | > 2
12 | B12 | 0.04 |  | 0.131 to 0.262 | 0.439 to 1.75 |  | 336 to 840 | 
13 | B13 | 0.03 | > 40 | < 0.131 | 0.439 to 1.75 | > 5 | < 336 | 
14 | B14 | 0.03 | > 40 | < 0.131 | < 0.439 |  |  | > 2
15 | B15 | 0.05 | > 40 | < 0.131 | < 0.439 |  |  | > 2
16 | B16 | 0.06 | > 40 | < 0.131 | < 0.439 |  |  | > 2
17 | B17 | 0.04 | > 40 | < 0.131 | 0.439 to 1.75 |  |  | 
18 | B18 | 0.03 | > 40 | < 0.131 | 0.439 to 1.75 | > 5 | < 336 | 
